Square brackets hold non-standard residues; d marks the D form. Ends that are not written are not given here.
Columns and labels:
Assay type in all cases: physicochemical
[1] = Rheological gelation measurement (MCR 302, cone-plate); conditions: for Loss Factor at te / Storage modulus G′ at te: 1 mM KA7-RGDSP-starPEG + 1 mM 5DexS or 0.01 mM 500DexS; for Storage moduli G′: 2 mM KA7-RGDSP-starPEG + 2 mM oligosaccharide, after 110 min of gelation
Method: The oligosaccharides were purchased as given in Table 9 and weighed out as required prior each experiment. Oligosaccharides and peptide-starPEG conjugates were dissolved in PBS (oligosaccharides at five-fold and peptide-starPEG at 1.25-fold of the final concentration) and mixed thoroughly. The samples were applied directly onto the measuring system. First, 80% of the final sample volume was provided by the peptide-starPEG solution. Second, the oligosaccharide solution was added to complete to 100% of sample volume.
The Modular Compact Rheometer MCR 302 (Anton Paar) was used with temperature control unit (P-PTD200+H-PTD200, Anton Paar) and cone-plate measuring system (CP20-0.3 and INSET I-PP20/SS, Anton Paar) for assessment of the mechanical properties of the hydrogels of different composition. The gelation measurement was performed at 20° C. with 1% oscillatory shear strain and a frequency of 1 Hz every 5 min for 2 hours. The data was analyzed with Excel (Excel 2013, Microsoft).
The following experiments studied the mechanical properties of hydrogels formed of different components. FIG. 14 summarizes the chosen parameters and measurement values. The storage modulus G′ and loss modulus G″ are calculated from the complex modulus G, which is recorded by the oscillating rheometer. The loss factor tan δ is further calculated by G″ divided by G′.

[2] = Hydrogel formation of peptide-starPEG conjugates with 14-kDa-heparin; conditions: peptide coupled to 10-kDa starPEG; 5 mM 14-kDa-heparin + 5 mM (2.5 mM) conjugate, 50 μl 1×PBS pH 7.4
Method: Following is the description of the production of the hydrogel networks. Hereby 14-kDa-heparin (25 mM, 2.5 mM) and peptide-starPEG conjugates (6.25 mM, 3.125 mM) were dissolved in physiologic phosphate buffer solution (1×PBS) water or cell culture medium with 2% fetal bovine serum (FBS). These solutions were dissolved in a ratio of 1:4 heparin:peptide-starPEG-conjugate by obtaining […] or 5 mM 14-kDa-heparin and 2.5 mM or 5 mM peptide-starPEG. The ligand/mol ratio was 2:1, 1:1 and 1:5 relative to the mol ratio of 14-kDa-heparin and the peptide-starPEG-conjugate. The mixtures were incubated within a time frame of one hour to overnight at […]. The gelation time spanned from present up to several hours depending on the applied peptide motif.
(§1) ATIII is a heparin-binding peptide known from the literature. All peptides are connected to a four-armed, maleimide functionalized 10-kDa-polyethylene glycol (starPEG). The hydrogel formation was tested in a 50 μI mixture, which contains 5 mM 14-kDa-heparin and 5 mM (2.5 mM) peptide-starPEG conjugate in phosphate buffer solution (1×PBS, pH 7.4). The deformation and penetration speed was analyzed through centrifuging the hydrogel in a 45° table centrifuge with 275 μm metal beads added to the surface. The deformation of the surface and the penetration of the metal beads were monitored in dependence on the applied force.
In addition to the peptide motif, a tryptophan was labeled with a one letter code W, for UV detection and purification and a cysteine, marked with the one letter code C, bound to the N-terminal end of the peptide with two glycine. By applying the Michael-addition-chemistry, the cysteine was coupled to the maleimide-functionalized 10-kDa-starPEG. […] This is the largest library of peptide-polymer-conjugates, for which each of the oligosaccharide dependent hydrogel formation was analyzed. To analyze the formation of hydrogels, all peptide-starPEG-conjugates were each mixed with 14-kDa-heparin in 50 μI phosphate buffer (1×PBS) to a final concentration of 5 mM. […]

[3] = High-throughput centrifuge analysis of mechanical properties of the hydrogels (surface deformation, metal bead penetration); conditions: for Deformation speed: 50 μl 1×PBS, 45° centrifuge; for Penetration speed: 275 μm metal beads
Method: as §1
A comparative high-throughput analysis was performed regarding the mechanical properties of the hydrogels. In order to provide a fast high-throughput method for comparing small amounts of hydrogel, a tabletop centrifuge (5424R, Eppendorf, Hamburg, Germany) was used. For this purpose, 50 μl of the hydrogel were formed by mixing the peptide-starPEG-conjugates and 14-kDa-heparin in phosphate buffer (1×PBS, pH 7.4) to a final concentration of 5 mM (once 2.5 mM for KA7-starPEG). The mixture was incubated in 0.2 ml reaction vessels overnight. The deformation of the hydrogel surface was determined in reference to the 45° centrifuge rotor and the penetration of 275 μm metal beads in dependence on the force that has to be produced by the centrifuge. All experiments were repeated three times.
Hereby FIGS. 5A and B show a deformation of the surface of the 50 μl hydrogel in a 0.2 ml reaction tube, more specifically FIG. 5A below the speed required for deforming the surface, and FIG. 5B at the speed required for deforming the surface. FIG. 5C is a schematic representation of the penetration of a small spheres through 50 μl hydrogel in a 0.2 ml reaction tube depending on the force exerted by the 45° centrifuge.
The hydrogels were formed by mixing peptide-starPEG-conjugate and 14-kDa-heparin at 5 mM final concentration in 50 μl phosphate buffer (1×PBS). The analysis was performed by centrifuging the hydrogels in a 45° tabletop centrifuge with 275 μm metal beads on the gel surface. The deformation of the surface and the penetration of the spheres were recorded in dependence on the exerted force.

[4] = Hydrogel formation in different solvents; conditions: 5 mM conjugate + 5 mM 14-kDa-heparin
Method: Three respective different cases were tested in the hydrogel-formation stability test. […] The hydrogels were formed by mixing the final concentrations of respectively 5 mM peptide-starPEG-conjugate and 5 mM 14-kDa-heparin in 50 μl physiological phosphate buffer solution (1×PBS), Milli-Q-water or cell culture medium with 2% fetal bovine serum (FBS). The stability of the hydrogels was tested with the same solvent in which it was formed in 200 μl supernatant. The hydrogels were incubated at room temperature (24° C.), the supernatants were changed every day for at least three days in a row and the result after at least 3 days analyzed.

[5] = Stability of formed hydrogels against different solvents; conditions: 24° C., at least three days
Method: In order to test the strength of the interaction between the peptide motif and the 14-kDa-heparin the formed hydrogels were tested with regard to different solvents. […] For this the peptide-starPEG-conjugates were mixed with 14 kDa-heparin in 50 μl in physiological phosphate buffer solution (1×PBS) to a final concentration of respectively 5 mM. Each solvent, i.e., physiological phosphate buffer solution (1×PBS), Milli-0-water, 1 M hydrochloric acid (HCl) 1 M sodium hydroxide solution (NaOH), saturated sodium chloride solution (NaCl), dimethyl sulfoxide (DMSO), ethanol and cell culture medium with 2% fetal bovine serum (FBS) were respectively added as 200 μl supernatant to the hydrogel. The hydrogel was incubated at a room temperature of 24° C. and the supernatants where exchanged every day for at least three days. All experiments were performed three times. Under none of the tested conditions the KA7-hydrogel could be destroyed. […] 2,2,2-trifuourethanlol (TFE) is known to destroy any type of secondary structures.

[6] = te 120 min, sulfate sodium salt
[7] = 2 mM KA7-starPEG + 2 mM 5DexS or 0.02 mM 500DexS, te 120 min, sulfate sodium salt
[8] = 5 mM peptide-starPEG + 5 mM 14-kDa-heparin
[9] = 1.5 mM KA7-starPEG(10 kD) + 3 mM cyclodextrin sulfate, te 120 min
[10] = 1 mM KA7-RGDSP-starPEG(40 kDa) + 1 mM oligosaccharide, te 120 min
[11] = 2 mM KA7-RGDSP-starPEG(10 kDa) + 2 mM oligosaccharide, te 110 min (5DexS), 120 min (Hep)
[12] = 2 mM KA7-starPEG(10 kDa) + 2 mM oligosaccharide, te 120 min
[13] = Cell culture medium with 2% FBS
[14] = PBS, 50 μl, result after at least 3 days
[15] = supernatant 1xPBS, 5 mM conjugate + 5 mM heparin gel
[16] = supernatant Cell culture medium with 2% FBS
[17] = supernatant Saturated NaCl solution
[18] = 2.5 mM peptide-starPEG + 5 mM 14-kDa-heparin

Substance: Dextran sulfate sodium salt [Peptide 500DexS]
- Loss Factor at te [1, 6]: 0.0307
- Storage modulus G′ at te [1, 6]: 1,658 Pa
- Loss Factor at time point [1, 7]: 0.0887
- Storage modulus G′ at time point [1, 7]: 34,694 Pa

Substance: CWGGkAkAkAkAkAkAkA (CWGG[dK]A[dK]A[dK]A[dK]A[dK]A[dK]A[dK]A) [dKA7]
- Hydrogel formation with heparin [2]: neither formation of a hydrogel

Substance: CWGGKAFAKLAARLYRKA (Human) [ATIII, reference compound]
- Deformation speed [3, 8]: gel shrank

Substance: β-cyclodextrin sulfated sodium salt
- Loss Factor at time point [1, 9]: 0.062
- Storage modulus G′ at time point [1, 9]: 33,169 Pa

Substance: γ-cyclodextrin sulfated sodium salt
- Loss Factor at time point [1, 9]: 0.0355
- Storage modulus G′ at time point [1, 9]: 30,749 Pa

Substance: Heparin [reference compound]
- Loss Factor at time point [1, 10]: 0.0486
- Storage modulus G′ at time point [1, 10]: 811 Pa
- Storage moduli G′ [1]: 12.1 kPa
- Loss Factor at time point [1, 11]: 0.0193
- Storage modulus G′ at time point [1, 11]: 12,104 Pa
- Loss Factor at time point [1, 12]: 0.0131
- Storage modulus G′ at time point [1, 12]: 1,849 Pa
- Factor by which storage modulus G′ is lower than for 5DexS gels ([1]; 2 mM KA7-starPEG, after 120 min of gelation): 40

Substance: CWGGKaKaKaKaKaKaKa (CWGGK[dA]K[dA]K[dA]K[dA]K[dA]K[dA]K[dA]) [KdA7]
- Hydrogel formation with heparin [2]: neither formation of a hydrogel

Substance: CWGGRARARARARARARA [RA7]
- Hydrogel formation in solvent [4, 13]: formed
- Hydrogel formation in solvent [4, 14]: formed
- Hydrogel formation in solvent ([4]; water (Milli-Q)): formed
- Stability of hydrogel against supernatant ([5]; supernatant 1M HCl): Stable; hydrogel was
- Stability of hydrogel against supernatant ([5]; supernatant 1M NaOH): Stable
- Stability of hydrogel against supernatant [5, 15]: Stable; the surface
- Stability of hydrogel against supernatant [5, 16]: Stable
- Stability of hydrogel against supernatant ([5]; supernatant DMSO): Stable
- Stability of hydrogel against supernatant ([5]; supernatant Ethanol): Stable
- Stability of hydrogel against supernatant [5, 17]: Not stable; hydrogel
- Stability of hydrogel against supernatant ([5]; supernatant Water): Stable
- Deformation speed [3, 8]: 1069 +/- 579 m/s^2
- Penetration speed [3, 8]: 1952 +/- 491 m/s^2

Substance: CWGGRARARARARA [RA5]
- Deformation speed [3, 8]: >687 m/s^2
- Penetration speed [3, 8]: >687 m/s^2

Substance: Dextran sulfate sodium salt [Peptide 5DexS]
- Loss Factor at te [1, 6]: 0.00681
- Storage modulus G′ at te [1, 6]: 2,295 Pa
- Loss Factor at time point [1, 10]: 0.0105
- Storage moduli G′ [1]: 14.5 kPa
- Loss Factor at time point [1, 11]: 0.00611
- Storage modulus G′ at time point [1, 11]: 14,486 Pa
- Loss Factor at time point [1, 7]: 0.132
- Storage modulus G′ at time point [1, 7]: 76,977 Pa
- Loss Factor at time point [1, 12]: 0.132
- Storage modulus G′ at time point [1, 12]: 76,977 Pa

Substance: CWGGKAKAKAKaKAKAKA (CWGGKAKAKAK[dA]KAKAKA) [KA7-1a]
- Hydrogel formation with heparin [2]: doesn't form a hydrogel with heparin

Substance: CWGGKAKAKAKAKAKAKA [KA7]
- Hydrogel formation in solvent [4, 13]: formed
- Hydrogel formation in solvent [4, 14]: formed
- Hydrogel formation in solvent ([4]; water (Milli-Q)): formed
- Stability of hydrogel against supernatant ([5]; supernatant 1M HCl): Stable
- Stability of hydrogel against supernatant ([5]; supernatant 1M NaOH): Stable
- Stability of hydrogel against supernatant [5, 15]: Stable
- Stability of hydrogel against supernatant [5, 16]: Stable
- Stability of hydrogel against supernatant ([5]; supernatant DMSO): Stable
- Stability of hydrogel against supernatant ([5]; supernatant Ethanol): Stable
- Stability of hydrogel against supernatant [5, 17]: Stable
- Stability of hydrogel against supernatant ([5]; supernatant Water): Stable
- Deformation speed [3, 18]: 43998 +/- 3139 m/s^2
- Penetration speed [3, 18]: 72780 +/- 6926 m/s^2
- Deformation speed [3, 8]: >148317 m/s^2
- Penetration speed [3, 8]: 138919 +/- 16275 m/s^2

Substance: α-cyclodextrin sulfated sodium salt
- Loss Factor at time point [1, 9]: 0.0641
- Storage modulus G′ at time point [1, 9]: 30,561 Pa

From US11523990B2, “Non-covalent, self-organzing hydrogel matrix for biotechnological applications” (DENOVOMATRIX GMBH, priority 2012, dated 2022)
